# Like-named read-outs stand apart in the source and are kept apart here.
# T1: gp70 C.1086 V1/V2 (HIV-1 V1V2 on murine leukemia virus gp70)
# T1 construct: also called C.gp70 1086C V1V2; C.1086gp70V1V2
# T1 chain: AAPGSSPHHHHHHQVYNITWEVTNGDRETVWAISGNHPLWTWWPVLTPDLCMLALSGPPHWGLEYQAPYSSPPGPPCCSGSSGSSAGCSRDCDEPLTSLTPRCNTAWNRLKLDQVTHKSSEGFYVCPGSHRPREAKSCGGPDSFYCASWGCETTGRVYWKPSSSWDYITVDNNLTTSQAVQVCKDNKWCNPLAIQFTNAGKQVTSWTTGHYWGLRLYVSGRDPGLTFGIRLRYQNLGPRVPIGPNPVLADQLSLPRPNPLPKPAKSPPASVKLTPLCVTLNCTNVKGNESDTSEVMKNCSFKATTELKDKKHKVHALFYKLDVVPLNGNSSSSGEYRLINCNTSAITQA
# T2: gp70 B.CaseA2 V1/V2/V169K (HIV-1 V1V2 on murine leukemia virus gp70)
# T2 chain: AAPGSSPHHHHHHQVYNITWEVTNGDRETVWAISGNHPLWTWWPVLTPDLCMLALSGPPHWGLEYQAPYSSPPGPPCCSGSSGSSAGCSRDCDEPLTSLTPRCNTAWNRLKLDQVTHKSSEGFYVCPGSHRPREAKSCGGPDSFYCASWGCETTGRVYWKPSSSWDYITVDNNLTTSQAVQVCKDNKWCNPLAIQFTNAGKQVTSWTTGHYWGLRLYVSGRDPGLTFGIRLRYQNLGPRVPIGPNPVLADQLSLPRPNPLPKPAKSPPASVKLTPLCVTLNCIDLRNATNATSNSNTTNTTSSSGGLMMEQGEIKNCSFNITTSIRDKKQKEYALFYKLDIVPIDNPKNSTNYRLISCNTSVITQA
# T3: gp70 B.CaseA2 V1/V2/V169K/E172V/E173H (HIV-1 V1V2 on murine leukemia virus gp70)
# T3 construct: also called gp70 B.CaseA2 V1/V2 Mut3
# T3 chain: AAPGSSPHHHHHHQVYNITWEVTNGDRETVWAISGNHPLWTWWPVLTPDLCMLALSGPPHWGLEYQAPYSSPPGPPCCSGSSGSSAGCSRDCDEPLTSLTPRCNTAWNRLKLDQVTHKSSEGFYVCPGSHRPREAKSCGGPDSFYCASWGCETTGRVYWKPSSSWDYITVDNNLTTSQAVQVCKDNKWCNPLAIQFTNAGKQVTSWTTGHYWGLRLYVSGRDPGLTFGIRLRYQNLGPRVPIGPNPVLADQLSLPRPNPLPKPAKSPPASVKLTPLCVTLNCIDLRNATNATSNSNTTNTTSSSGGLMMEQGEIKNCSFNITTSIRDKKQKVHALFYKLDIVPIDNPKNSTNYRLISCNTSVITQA
# Columns and labels:
# [1] = target: Env of TH023.6.I181L virus (HIV-1); test: cell-based or functional assay
# [2] = target: Env of 703357.2.Q169KI181L virus (HIV-1); test: cell-based or functional assay
# [3] = target: Env of 92TH023 K169Q virus (HIV-1); test: cell-based or functional assay
# Env of 427299.c12 virus = Env of 427299.c12 virus (HIV-1); test: cell-based or functional assay
# Env of 703357.c02 virus = Env of 703357.c02 virus (HIV-1); test: cell-based or functional assay
# [4] = target: Env of CM244NW.4.K169Q virus (HIV-1); test: cell-based or functional assay
# [5] = target: Env of 703357.2.Q169KR170Q virus (HIV-1); test: cell-based or functional assay
# [6] = target: Env of 703357.2.Q169K virus (HIV-1); test: cell-based or functional assay
# [7] = target: Env of 427299.c12.KL.Q169K/I181L virus (HIV-1); test: cell-based or functional assay
# [8] = target: Env of CM244NW.6.I181L virus (HIV-1); test: cell-based or functional assay
# [9] = target: Env of 703357.2.I181L virus (HIV-1); test: cell-based or functional assay
# Env of AE.CM244 virus = Env of AE.CM244 virus (HIV-1); test: cell-based or functional assay
# Env of AE.92TH023 virus = Env of AE.92TH023 virus (HIV-1); test: cell-based or functional assay
# [10] = target: Env of 427299.c12.Q169K virus (HIV-1); test: cell-based or functional assay
# [11] = target: Env of 703357.2.Q169KR170QI181L virus (HIV-1); test: cell-based or functional assay
# C.1086 V1V2 Tags [12] = target: C.1086 V1V2 Tags (HIV-1); test: ELISA
# gp70 C.1086 V1/V2 [13] = target: T1, gp70 C.1086 V1/V2; test: ELISA
# AE.A244 gp120 delta 11 [14] = target: T4, AE.A244 gp120 delta 11 (HIV-1); test: ELISA
# T4 construct: also called E.A244gp120Δ11; AE.A244 Δ11 gp120
# AE.A244 V1V2 Tags [15] = target: AE.A244 V1V2 Tags (HIV-1); test: ELISA
# C.1086 V1V2 Tags [16] = target: C.1086 V1V2 Tags (HIV-1); test: ELISA; remark: listed apart in the source
# gp70 C.1086 V1/V2 [17] = target: T1, gp70 C.1086 V1/V2; test: ELISA
# AE.A244 gp120 delta 11 [18] = target: T4, AE.A244 gp120 delta 11; test: ELISA; remark: listed apart in the source
# AE.A244 V1V2 Tags [19] = target: AE.A244 V1V2 Tags (HIV-1); test: ELISA; remark: listed apart in the source
# [20] = target: T2, gp70 B.CaseA2 V1/V2/V169K; test: ELISA
# [21] = target: T3, gp70 B.CaseA2 V1/V2/V169K/E172V/E173H; test: ELISA
# AE.A244 V1V2 Tags [22] = target: AE.A244 V1V2 Tags (HIV-1); test: ELISA; remark: listed apart in the source
# C.CAP206 gp140CF.12 = C.CAP206 gp140CF.12 (HIV-1); test: ELISA
binder,measurement,setting,value
"CH59 (antibody, V domains shown, also called mAb CH59) VH: EVQLVESGGGLVQPGRSLRLSCAASGFTFDDGAMHWVRQAPGKGLEWVSGISWNSNIIAYADSVKGRFTISRDNAKNSLYLEMNSLRVEDTALYYCAKDSPRGELPLNYWGQGTLVTVSS VL: SYELTQPPSVSVSPGQTARITCSGDALPKNYAYWYQQKSGQAPVLVIYEDSKRPSGIPERFSGSSSGTMATLTISGAQVEDEADYYCYSTDSSGNHRVFGGGTKLTVL","ID50 assayed in TZM-bl cells, TH023.6.I181L",[1],5.33 µg/mL
same,"ID50 assayed in TZM-bl cells, 703357.2.Q169KI181L",[2],> 50 µg/mL
same,"ID50 assayed in TZM-bl cells, TH023.6.K169Q",[3],> 50 µg/mL
same,"ID50 assayed in TZM-bl cells, 427299.c12",Env of 427299.c12 virus,> 50 µg/mL
same,"ID50 assayed in TZM-bl cells, 703357.c02",Env of 703357.c02 virus,> 50 µg/mL
same,"ID50 assayed in TZM-bl cells, CM244NW.4.K169Q",[4],> 50 µg/mL
same,"ID50 assayed in TZM-bl cells, 703357.2.Q169KR170Q",[5],> 50 µg/mL
same,"ID50 assayed in TZM-bl cells, 703357.2.Q169K",[6],> 50 µg/mL
same,"ID50 assayed in TZM-bl cells, 427299.c12.KL.Q169K/I181L",[7],> 50 µg/mL
same,"ID50 assayed in TZM-bl cells, CM244NW.6.I181L",[8],> 50 µg/mL
same,"ID50 assayed in TZM-bl cells, 703357.2.I181L",[9],> 50 µg/mL
same,"ID50 assayed in TZM-bl cells, CM244.ec1",Env of AE.CM244 virus,> 50 µg/mL
same,"ID50 assayed in TZM-bl cells, TH023.6",Env of AE.92TH023 virus,1.92 µg/mL
same,"ID50 assayed in TZM-bl cells, 427299.c12.Q169K",[10],> 50 µg/mL
same,"ID50 assayed in TZM-bl cells, 703357.2.Q169KR170QI181L",[11],> 50 µg/mL
same,EC50,C.1086 V1V2 Tags [12],0.1 nM
same,EC50,gp70 C.1086 V1/V2 [13],0.067 nM
same,EC50,AE.A244 gp120 delta 11 [14],0.087 nM
same,EC50,AE.A244 V1V2 Tags [15],0.014 nM
same,EC50,C.1086 V1V2 Tags [16],0.1 nM
same,EC50,gp70 C.1086 V1/V2 [17],0.067 nM
same,EC50,AE.A244 gp120 delta 11 [18],0.087 nM
same,EC50,AE.A244 V1V2 Tags [19],0.014 nM
same,binding result,[20],no binding
same,EC50,[21],0.02 µg/mL
same,EC50,AE.A244 V1V2 Tags [22],0.0018 nM
same,EC50,C.CAP206 gp140CF.12,> 667 nM

# Reference: patent US9988424 (DUKE UNIVERSITY, dated 2018)
